In patent publication US20260008817A1, “CYCLIC PEPTIDE OR SALT THEREOF, AND USES THEREOF” (FUJIFILM Corporation, priority 2023, published 2026):

Tests used:
[1] = target: T1, FGFR4 Protein, Human, Recombinant (His Tag) (Homo sapiens, UniProt P22455); test: SPR FGFR versatility, FGFR4 on immobilized cyclic peptide; assay type: binding; conditions: 1 μmol/L FGFR, 25° C.
T1 construct: His tag; purchased Sino Biological 10538-H08H
T1 sequence (P22455 22-369 limits assumed): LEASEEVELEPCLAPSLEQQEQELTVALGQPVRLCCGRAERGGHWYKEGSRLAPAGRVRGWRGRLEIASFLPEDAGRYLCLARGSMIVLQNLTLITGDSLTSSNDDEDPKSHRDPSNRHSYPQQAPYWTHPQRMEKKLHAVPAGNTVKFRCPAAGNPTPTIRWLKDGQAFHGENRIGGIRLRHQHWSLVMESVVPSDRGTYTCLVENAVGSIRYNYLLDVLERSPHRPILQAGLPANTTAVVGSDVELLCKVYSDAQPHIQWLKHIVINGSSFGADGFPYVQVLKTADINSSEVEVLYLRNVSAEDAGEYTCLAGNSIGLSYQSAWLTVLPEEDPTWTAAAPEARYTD
Experimental: The binding of the cyclic peptide to various types of FGFRs was evaluated using a surface plasmon resonance (SPR) method.
The binding affinity of the chemically synthesized cyclic peptide to FGFR was evaluated by the following procedure.
A CM5 sensor chip (Cytiva, 29149603) was set in Biacore-T200 (manufactured by Cytiva) which is a surface plasmon resonance device, and an HBS-EP buffer (Cytiva, BR100826) was added as a running buffer at a flow rate of 10 μL/min to equilibrate the flow channel. Next, 70 μL of a mixed aqueous solution of 0.2 mol/L 1-(3-dimethylaminopropyl)-3-ethylcarbodiimide (EDC) and 0.05 mol/L N-hydroxysuccinimide (NHS) was added to activate the sensor chip. Then, a cyclic peptide prepared to 2 mg/mL in HBS-EP buffer was added thereto to perform immobilization at about 200 RU. […]
After various FGFRs (FGFR1 Protein, Human, Recombinant (His Tag) (Sino Biological, 10616-H08H), FGFR3 Protein, Human, Recombinant (ECD, His Tag) (Sino Biological, 16044-H08H), FGFR4 Protein, Human, Recombinant (His Tag) (Sino Biological, 10538-H08H)) diluted with HBS-EP to 1 μmol/L at 25° C. was added to each flow channel of the cyclic peptide-immobilized sensor chip prepared above, for 10 minutes, HBS-EP was allowed to flow as a running buffer for 30 minutes, and the binding of various FGFRs to the cyclic peptide was measured. […]

[2] = Reductive stability of cyclic peptide (DTT treatment, LC); assay type: physicochemical; conditions: residual rate after DTT treatment, room temperature, 1 hour
Experimental: The molecular stability of the cyclic peptide was evaluated by analyzing an aqueous solution of the cyclic peptide treated with a reducing agent by liquid chromatography (LC).
The reducing agent treatment was performed under the following conditions based on the concentration of glutathione contained in the cells. 25 μL of a 0.2 mg/mL cyclic peptide aqueous solution was prepared, 58.8 μL of a 12.6 mmol/L DTT aqueous solution was added to the aqueous solution, and the mixture was incubated at room temperature for 1 hour to obtain an aqueous solution of the cyclic peptide treated with a reducing agent. The DTT aqueous solution was used by diluting a 1 mol/L (+−)-dithiothreitol (DTT) solution (FUJIFILM Wako Pure Chemical Corporation, 044-33871) with water. The total area of all the peaks in LC/MS of the cyclic peptide before the reducing agent treatment was set to 100%, and the proportion of the total area of all the peaks in LC/MS of the aqueous solution of the cyclic peptide treated with the reducing agent was determined to calculate the residual rate of the cyclic peptide, and the molecular stability was evaluated according to the following evaluation criteria. The evaluation result preferably satisfies the evaluation criteria A, B, or C.
• A: The residual rate of cyclic peptide is 90% or more. • B: The residual rate of the cyclic peptide is 70% or more and less than 90% • C: The residual rate of the cyclic peptide is 50% or more and less than 70% • D: The residual rate of the cyclic peptide is less than 50%
The LC used for the evaluation of molecular stability was set to the following conditions. • LC device: Prominence series (pump, column oven, autosampler, detector) (manufactured by Shimadzu Corporation) • Detector: photodiode array detector (SPD-M20A), measurement wavelength of 280 nm • Column: TSKgel ODS-100V, inner diameter of 4.6 mm×length of 150 mm, particle diameter of 5 μm (manufactured by Tosoh Corporation) • Eluent A: solution containing 0.1% trifluoroacetic acid as solute, and solvent is 100% water • Eluent B: solution containing 0.1% trifluoroacetic acid as solute, and solvent is 100% acetonitrile • Flow rate: 1.0 mL/min • Injection amount: 25 μL • Gradient: 20% to 50%: Eluent B (0 to 15 minutes), 100%: Eluent B (15 minutes) • Column temperature: 40° C.

335 (ACVWTFDRHAQEISQALHKVKKK; not fully specified; Description of Artificial Sequence: Cyclic peptide) [compound 335]
Evaluation result of binding affinity to FGFR4 [1]: A (The binding amount is 0.05 molecules of FGFR/one molecule of the cyclic peptide or more.) | Evaluation result of reductive stability [2]: B (The residual rate of the cyclic peptide is 70% or more and less than 90%)
